Measurements as given in patent publication US20050054014A1.
Starred links: 1 amine or outer side, 2 acyl side, 3 side chain; linkers in the order of their positions; H or OH if unused. Non-standard residues stand in square brackets, D forms with d. No end group written: not given here. βAsp = O=C(O)[C@H](CC(=O)[*:2])N[*:1]

What was measured:
[1] = biological target: AG1-1 specific monoclonal antibody F49; assay: competitive ELISA, biotin-GRVRVD-β-SAY on streptavidin plates, free peptide as competitor
[2] = biological target: polyclonal AG1-1 specific rabbit antiserum; assay: competitive ELISA, BSA-BS^3-AG1-1 coated plates, free peptide as competitor

fold higher reactivity compared with the αL form [1] [fold]	fold higher reactivity compared with the non-boiled form [2] [fold]	Binder
> 500	–	GRVRV[βAsp]SAY [AG1-1 peptide, isomerized (βL) form]
–	7	GRVRVNSAY (also: heated mixture: Asn6 partly converted to βL, αD and βD forms) [AG1-1 peptide … heated at 90° C. for 4 hours]
